# Source: publication PMC5993529
# What was measured:
# [1] = target: Recombinant human VEGFR1 (human) (UniProt P17948); test: SPR
# [2] = target: Recombinant human VEGFR2 (human) (UniProt P35968); test: SPR
# UniProt P35968, sequence (P35968 20-764): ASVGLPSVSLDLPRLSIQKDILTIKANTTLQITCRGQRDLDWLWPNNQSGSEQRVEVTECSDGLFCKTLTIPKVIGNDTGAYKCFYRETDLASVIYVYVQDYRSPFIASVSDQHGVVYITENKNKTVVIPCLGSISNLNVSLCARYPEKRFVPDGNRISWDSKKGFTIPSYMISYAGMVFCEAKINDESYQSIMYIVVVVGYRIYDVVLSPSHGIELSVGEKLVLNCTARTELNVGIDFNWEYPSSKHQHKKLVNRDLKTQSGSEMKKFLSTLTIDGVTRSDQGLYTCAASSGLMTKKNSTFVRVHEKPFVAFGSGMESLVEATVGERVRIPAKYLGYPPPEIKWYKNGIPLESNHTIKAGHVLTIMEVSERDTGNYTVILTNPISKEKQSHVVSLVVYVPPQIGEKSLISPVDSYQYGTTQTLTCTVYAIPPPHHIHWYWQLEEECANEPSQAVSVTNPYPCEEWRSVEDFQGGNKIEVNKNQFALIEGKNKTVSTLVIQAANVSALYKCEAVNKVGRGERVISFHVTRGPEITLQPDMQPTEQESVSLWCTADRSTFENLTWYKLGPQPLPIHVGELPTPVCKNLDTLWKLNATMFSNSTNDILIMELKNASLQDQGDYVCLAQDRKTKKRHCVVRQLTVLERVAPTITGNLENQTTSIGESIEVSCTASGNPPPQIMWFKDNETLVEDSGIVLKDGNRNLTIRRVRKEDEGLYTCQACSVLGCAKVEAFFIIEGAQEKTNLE
# UniProt P17948, sequence (P17948 27-758): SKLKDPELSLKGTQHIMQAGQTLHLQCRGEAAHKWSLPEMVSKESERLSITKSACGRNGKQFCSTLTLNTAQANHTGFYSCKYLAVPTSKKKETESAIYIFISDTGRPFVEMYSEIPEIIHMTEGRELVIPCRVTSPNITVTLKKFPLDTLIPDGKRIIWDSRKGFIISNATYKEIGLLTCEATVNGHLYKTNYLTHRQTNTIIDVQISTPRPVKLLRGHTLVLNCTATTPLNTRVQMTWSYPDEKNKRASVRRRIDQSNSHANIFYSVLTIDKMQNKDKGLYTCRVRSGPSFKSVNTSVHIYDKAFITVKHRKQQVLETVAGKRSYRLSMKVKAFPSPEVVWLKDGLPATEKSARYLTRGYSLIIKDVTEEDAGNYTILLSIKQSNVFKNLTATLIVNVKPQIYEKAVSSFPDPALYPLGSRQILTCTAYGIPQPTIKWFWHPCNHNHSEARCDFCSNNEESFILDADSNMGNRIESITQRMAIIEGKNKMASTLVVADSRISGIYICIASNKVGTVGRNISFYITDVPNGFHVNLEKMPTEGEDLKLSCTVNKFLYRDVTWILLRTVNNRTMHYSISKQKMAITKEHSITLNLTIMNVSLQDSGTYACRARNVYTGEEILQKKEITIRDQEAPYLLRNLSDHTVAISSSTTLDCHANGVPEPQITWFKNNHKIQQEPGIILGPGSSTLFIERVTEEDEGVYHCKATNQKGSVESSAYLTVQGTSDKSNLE
substance,measurement,setting,value
Recombinant human VEGFA (from UniProt P15692 1-395) (ligand),Kd,[1],0.0231 nM
same,Kd,[2],0.398 nM
